Experimental data taken from article PMC7955116, “The FlgN chaperone activates the Na^+-driven engine of the Salmonella flagellar protein export apparatus” (Communications Biology, 2021).

B1: His-FlgN (natural protein)
chain: MTRLSEILDQMTTVLNDLKTVMDAEQQQLSVGQINGSQLQRITEEKSSLLATLDYLEQQRRLEQNAQRSANDDIAERWQAITEKTQHLRDLNQHNGWLLEGQIERNQQALEVLKPHQEPTLYGADGQTSVSHRGGKKISI
notes: FlgN of Salmonella enterica serovar Typhimurium; source: E. coli BL21 (DE3) Star, in lysate or purified (Ni-NTA)

Experiments:
GST-FliJ = biological target: T1, GST-FliJ (Salmonella enterica serovar Typhimurium, UniProt P0A1K1 1-147); experiment: SPR; GST-FliJ or GST-FliJ(Δ13–24) captured through immobilised anti-GST antibody on a CM5 chip; His-FlgN flowed over at 20 µl/min; 10 mM HEPES pH 7.4, 0.15 M NaCl, 3 mM EDTA, 0.005% Surfactant P20; 25 °C; steady-state analysis, 1 to 1 binding model; settings: both partners purified
T1 construct: FliJ, flagellar export protein of Salmonella enterica serovar Typhimurium; also called GST-J; source: Salmonella MMHI0117, over-produced, in lysate

His-FlgN = biological target: B1; experiment: as above; settings: both partners purified

Binder | Kd (GST-FliJ) | Kd (His-FlgN)
B1 | 27.4 ± 13 µM | –
GST-FliJ(Δ13–24) (natural protein, FliJ of Salmonella enterica serovar Typhimurium with residues 13-24 deleted; also called GST-J(Δ13–24)) MAQHGALETLKDLGEMRRGCQQAEEQLKMLIDYQNEYRSNLNTDMGNGIASNRWINYQQFIQTLEKAIEQHRLQLTQWTQKVDLALKSWREKKQRLQAWQTLQDRQTAAALLAENRMDQKKMDEFAQRAAMRKPE | – | 7.74 ± 0.12 µM
